The target in series [1] is T1, Purβ FL (full-length NHis-Purβ) (Mus musculus, UniProt O35295).
T1 sequence (O35295 1-324): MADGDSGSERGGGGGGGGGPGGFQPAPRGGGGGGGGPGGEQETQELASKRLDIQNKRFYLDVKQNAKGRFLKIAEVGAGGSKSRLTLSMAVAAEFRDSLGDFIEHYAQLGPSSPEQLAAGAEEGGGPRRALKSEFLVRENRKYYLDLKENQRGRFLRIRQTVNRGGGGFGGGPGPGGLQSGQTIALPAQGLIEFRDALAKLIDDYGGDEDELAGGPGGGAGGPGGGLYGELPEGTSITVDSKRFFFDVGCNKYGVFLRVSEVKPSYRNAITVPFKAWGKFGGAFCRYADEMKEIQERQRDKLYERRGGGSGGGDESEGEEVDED
The experiment in a line: ssDNA-binding ELISA. (In general: An ELISA detects its analyte on a solid surface through an enzyme-linked reagent.)

Another series deals with T2, Purβ III (Mus musculus, UniProt O35295).
T2 sequence (O35295 209-303): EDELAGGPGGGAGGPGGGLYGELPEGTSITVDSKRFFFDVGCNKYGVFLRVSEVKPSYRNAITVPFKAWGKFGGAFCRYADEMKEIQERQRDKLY
The experiment in a line: ssDNA-binding ELISA.

For a further series, the target named is T3, Purβ I-II-III (Mus musculus, UniProt O35295).
T3 sequence (O35295 41-303): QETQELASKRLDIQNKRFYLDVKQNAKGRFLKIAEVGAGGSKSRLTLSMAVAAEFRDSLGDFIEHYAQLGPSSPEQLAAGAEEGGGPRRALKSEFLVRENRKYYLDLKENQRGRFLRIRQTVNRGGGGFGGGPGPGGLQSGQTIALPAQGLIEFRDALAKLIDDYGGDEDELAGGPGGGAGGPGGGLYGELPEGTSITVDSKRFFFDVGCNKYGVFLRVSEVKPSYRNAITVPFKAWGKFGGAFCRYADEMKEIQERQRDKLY
The experiment in a line: ssDNA-binding ELISA.

The series “SEC” concerns the molecule itself. The experiment in a line: SEC. For orientation: Size exclusion chromatography separates by hydrodynamic size, large species first.
The next series addresses T4, Purβ R267A (Mus musculus, UniProt O35295 1-324, R267A).
T4 sequence: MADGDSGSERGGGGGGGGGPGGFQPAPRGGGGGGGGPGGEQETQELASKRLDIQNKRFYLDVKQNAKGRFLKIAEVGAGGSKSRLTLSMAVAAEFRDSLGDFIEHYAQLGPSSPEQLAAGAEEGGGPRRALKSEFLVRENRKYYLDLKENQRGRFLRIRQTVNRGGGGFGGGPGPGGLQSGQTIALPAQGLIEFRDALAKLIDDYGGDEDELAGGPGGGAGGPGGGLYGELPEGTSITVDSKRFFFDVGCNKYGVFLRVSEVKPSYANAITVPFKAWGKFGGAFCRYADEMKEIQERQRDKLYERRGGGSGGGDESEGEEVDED
Description: ELISA.

Series [2] deals with T5, Purβ FL (wild-type NHis-Purβ) (Mus musculus, UniProt O35295 1-324).
T5 sequence: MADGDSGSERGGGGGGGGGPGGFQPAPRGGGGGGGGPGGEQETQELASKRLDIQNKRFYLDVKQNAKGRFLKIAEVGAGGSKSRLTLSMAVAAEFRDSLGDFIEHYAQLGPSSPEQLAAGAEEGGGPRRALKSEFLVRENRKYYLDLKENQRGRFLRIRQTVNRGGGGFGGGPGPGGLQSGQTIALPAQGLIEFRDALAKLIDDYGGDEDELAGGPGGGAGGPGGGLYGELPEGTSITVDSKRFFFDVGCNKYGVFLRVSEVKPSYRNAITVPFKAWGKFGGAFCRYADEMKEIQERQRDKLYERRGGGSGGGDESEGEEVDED
The experiment in a line: ELISA.

A further series addresses T6, Purβ R159A/R267A (Mus musculus, UniProt O35295 1-324, R159A;R267A).
T6 sequence: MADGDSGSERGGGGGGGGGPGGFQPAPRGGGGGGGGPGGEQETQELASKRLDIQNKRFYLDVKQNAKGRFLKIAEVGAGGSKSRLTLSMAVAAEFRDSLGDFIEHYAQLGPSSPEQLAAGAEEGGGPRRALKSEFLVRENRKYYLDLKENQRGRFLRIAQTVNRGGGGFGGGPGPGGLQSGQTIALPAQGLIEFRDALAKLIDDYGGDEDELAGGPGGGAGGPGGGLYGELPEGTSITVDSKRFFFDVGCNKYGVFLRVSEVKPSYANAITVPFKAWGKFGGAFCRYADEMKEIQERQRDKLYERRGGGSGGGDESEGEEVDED
Description: ELISA.

Data on five molecules can be found in publication PMC6368843 (Biochemistry, 2016).

The term IC50 denotes the concentration at which inhibition is half-maximal. In general, stoichiometry N refers to the number of molecules, sites or subunits per partner or assembly. What is called Kd is the free concentration of one partner at which half of the binding sites on the other are occupied at equilibrium, for simple one-to-one binding.

As for `C[C@H](CCC(=O)O)[C@H]1CC[C@H]2[C@@H]3CC[C@@H]4C[C@H](O)CC[C@]4(C)[C@H]3C[C@H](O)[C@]12C` [sodium deoxycholate], the results for the half-inhibitory concentration (IC50) (in series [1]; at Purβ III; at Purβ I-II-III) were 2360 µM, 1450 µM and 2030 µM, respectively.

B1: Purβ K82A/R159A/R267A triple point mutant, N-terminally hexahistidine-tagged (natural protein, mouse, UniProt O35295 1-324, looked up)
chain: MADGDSGSERGGGGGGGGGPGGFQPAPRGGGGGGGGPGGEQETQELASKRLDIQNKRFYLDVKQNAKGRFLKIAEVGAGGSASRLTLSMAVAAEFRDSLGDFIEHYAQLGPSSPEQLAAGAEEGGGPRRALKSEFLVRENRKYYLDLKENQRGRFLRIAQTVNRGGGGFGGGPGPGGLQSGQTIALPAQGLIEFRDALAKLIDDYGGDEDELAGGPGGGAGGPGGGLYGELPEGTSITVDSKRFFFDVGCNKYGVFLRVSEVKPSYANAITVPFKAWGKFGGAFCRYADEMKEIQERQRDKLYERRGGGSGGGDESEGEEVDED
With B1, the “stoichiometry N” value in the series “SEC” was determined as 2.

B2: Purβ R159A/R267A double point mutant, N-terminally hexahistidine-tagged (natural protein, mouse, UniProt O35295 1-324, looked up)
chain: MADGDSGSERGGGGGGGGGPGGFQPAPRGGGGGGGGPGGEQETQELASKRLDIQNKRFYLDVKQNAKGRFLKIAEVGAGGSKSRLTLSMAVAAEFRDSLGDFIEHYAQLGPSSPEQLAAGAEEGGGPRRALKSEFLVRENRKYYLDLKENQRGRFLRIAQTVNRGGGGFGGGPGPGGLQSGQTIALPAQGLIEFRDALAKLIDDYGGDEDELAGGPGGGAGGPGGGLYGELPEGTSITVDSKRFFFDVGCNKYGVFLRVSEVKPSYANAITVPFKAWGKFGGAFCRYADEMKEIQERQRDKLYERRGGGSGGGDESEGEEVDED
For B2, the “stoichiometry N” value in “SEC” was 2.

B3: Purβ R267A single point mutant, N-terminally hexahistidine-tagged (natural protein, mouse, UniProt O35295 1-324, looked up)
chain: MADGDSGSERGGGGGGGGGPGGFQPAPRGGGGGGGGPGGEQETQELASKRLDIQNKRFYLDVKQNAKGRFLKIAEVGAGGSKSRLTLSMAVAAEFRDSLGDFIEHYAQLGPSSPEQLAAGAEEGGGPRRALKSEFLVRENRKYYLDLKENQRGRFLRIRQTVNRGGGGFGGGPGPGGLQSGQTIALPAQGLIEFRDALAKLIDDYGGDEDELAGGPGGGAGGPGGGLYGELPEGTSITVDSKRFFFDVGCNKYGVFLRVSEVKPSYANAITVPFKAWGKFGGAFCRYADEMKEIQERQRDKLYERRGGGSGGGDESEGEEVDED
With B3, the “stoichiometry N” value in the series “SEC” was 2.

B4: PE32-bF (ssDNA)
DNA: GGGAGCAGAACAGAGGAATGCAGTGGAAGAGA
For the molecule B4, the equilibrium dissociation constant (Kd) turned out to be 0.00057 ± 4e-05 µM in the series with Purβ R267A, 0.00017 ± 1e-05 µM in series [2] and 0.0006 ± 4e-05 µM in the series with Purβ R159A/R267A.
